Common to all, as to assay type: cell-based, human
The subject of one assay is luminal MECs. As to the kind of experiment: Mammosphere assay, primary luminal cells after pre-treatment. As to conditions: 5-day treatment. The text has this: (§1) FIGS. 7A-7G. Migratory and self-renewal properties in primary MECs: inhibition and induction. (FIG. 7A) Mammosphere Assay: microscopy images of mammospheres and quantification of mammosphere formation by purified basal, luminal and unsorted MEC populations. Primary spheres were allowed to form over a period of 7 days, dissociated and seeded for secondary sphere formation, n(mammosphere)/1000 cells, n=48, (FIG. 7B) Migration Assay: microscopy images of migrated cells in Boyden Chambers and quantification, n=6. (FIG. 7C) Mammosphere Assay: basal cells were seeded into assay after a 5 day pre-treatment with TGF-beta inhibitors A83-01 and […] (SB43, both inhibitors at 10 μM) as well as recombinant SFRP1 (1 μg/ml), n(mammospheres)/1000 cells, n=6. (FIG. 7D) Migration Assay: basal cells were seeded into migration assays treated after 5 day pre-treatment as described in (C), n=24. (FIG. 7E) Mammosphere Assay: luminal cells were seeded into the assay following a 5 day pre-treatment with TGF-beta 1 (5 ng/ml), Wnt5a (250 ng/ml), anti-E-Cadherin antibody (1 μg/ml) plus anti-DKK1 antibody (10 μg/ml), and a cocktail of all factors added together (iEMT-II), n(mammospheres)/1000 cells, n=24. (FIG. 7F) Migration Assay: luminal cells were seeded into Boyden Chambers following a 5 day pre-treatment as described in (E), n=6. […]

In another assay the test system is HMLE^24+ cells. As to the kind of experiment: Mammosphere assay, HMLE^24+ cells after 14 day treatment. The method, then:
FIGS. 5A-5H. Concomitant stimulation of Wnt and TGF-beta pathways allows HMLE^24+ cells to enter into a mesenchymal and SC-like state. (FIG. 5A) RT-PCR: N-Cadherin, Zeb1 and Zeb2, L32 was loading control, n=3. Prior RNA isolation, HMLE^24+-shGFP or -shSFRP1 (stable knockdown of SFRP1, FIG. 12A) cells were treated for 3 days with daily doses of indicated factors: anti-DKK1 antibody (10 μg/ml), anti-E-Cadherin antibody (1 μg/ml), TGF-beta 1 (5 ng/ml), Wnt5a (250 ng/ml), (FIG. 5B) Brightfield microscopy: images of control, TGF-beta- and iEMT-cocktail treated HMLE^24+ cells after 14 days of treatment as indicated (see also FIG. 12D). (FIG. 5C) RT-PCR: Zeb1, Zeb2, E-Cadherin and N-Cadherin, L32 was loading control, n=3. After 14 day treatment, cells were expanded in absence of further stimulation for 4 passages. Shown are PBS-treated control HMLE^24+-shGFP and HMLE^24+-shSFRP1 cells, two HMLE^24+-shGFP cultures treated with TGF-beta 1 (TGF-β-a and -b), two HMLE^24+-shSFRP1 cultures treated with the iEMT-cocktail (iEMT-a and -b). […] (FIG. 5G) Lung metastasis: cells expanded for 8 passages after cessation of treatment as described in (C) were transformed with RAS; 1.0×10^5 cells were injected into the mammary fat pads of mice; GFP-labeled metastases on the surface of the lungs were quantified; *control vs. all other groups, p<0.05, n=5 mice/group. […]

The subject of assay [1] is basal MECs. The assay is described as follows: Migration assay, primary basal cells after pre-treatment. As to conditions: 5 day pre-treatment.
Excerpt: as §1

The subject of assay [2] is basal MECs. The assay is described as follows: Mammosphere assay, primary basal cells after pre-treatment. As to conditions: 5 day pre-treatment, assay without further treatment.
Excerpt: as §1

For a further assay, the system named is MSP cells. The assay is described as follows: Mammosphere assay, MSP cells. The method, then: FIGS. 3A-3E. Autocrine Signaling controls migration and mammosphere formation.
(§2) Mammosphere and tumorsphere assay. Assays were performed as previously described with modifications (Dontu et al., 2003): 1000 cells/well were seeded in 96-well ultra-low adhesion plates (Corning) in MEGM medium containing 1.3% methylcellulose (Stem Cell Technologies) supplemented with 20 ng/ml EGF, 10 ng/ml bFGF (both Sigma) and B27 (Gibco). Primary spheres were dissociated by trypsinization and replated for secondary sphere formation after a period of 5-7 days.

Another assay concerns HTwist and MSP cells. As to the kind of experiment: Mammosphere assay, HTwist and MSP cells. The method, then:
FIGS. 10A-10E. […] (FIG. 10E) Mammosphere Assay: HTwist and MSP were treated daily during mammosphere formation (5 days) with BMP4 (0.5 μg/ml), SB431542 (10 μM) or a combination of both, n(mammospheres)/1000 cells, n=6.
as §2

The mark [3] stands for this setting: added daily for 5 days (FIG. 3D).

Take “TGF-beta 1: recombinant TGF-beta 1 protein, used at 5 ng/ml”: in the assay with luminal MECs, the “increase in mammosphere-forming cells / efficiency” value is 3 fold. Further, in the assay with HMLE^24+ cells, the “increase in mammosphere formation vs untreated control cells” value is 10 fold.

B1: SFRP1: Recombinant human SFRP1 protein (R&D Systems), secreted decoy receptor binding canonical and non-canonical Wnt ligands (protein, UniProt Q8N474 32-314, looked up)
Secreted frizzled-related …: SEYDYVSFQSDIGPYQSGRFYTKPPQCVDIPADLRLCHNVGYKKMVLPNLLEHETMAEVKQQASSWVPLLNKNCHAGTQVFLCSLFAPVCLDRPIYPCRWLCEAVRDSCEPVMQFFGFYWPEMLKCDKFPEGDVCIAMTPPNATEASKPQGTTVCPPCDNELKSEAIIEHLCASEFALRMKIKEVKKENGDKKIVPKKKKPLKLGPIKKKDLKKLVLYLKNGADCPCHQLDNLSHHFLIMGRKVKSQYLLTAIHKWDKKNKEFKNFMKKMKNHECPTFQSVFK
Turning to B1, the reduction of motility in the assay with basal MECs [1] is on record as 3 fold. Besides, in the assay on basal MECs [2], the “reduction of mammosphere formation” value was 80-90%. For the same molecule, in the assay on MSP cells (setting [3]), the “reduction of primary mammosphere number” value is listed as 40%. The “reduction of secondary sphere formation” value in the assay with MSP cells (treated during primary sphere formation only) worked out at 80%.

B2: BMP4: Recombinant BMP4 protein obtained from Stemgent (protein, UniProt P12644 293-408, looked up)
Bone morphogenetic protein 4: SPKHHSQRARKKNKNCRRHSLYVDFSDVGWNDWIVAPPGYQAFYCHGDCPFPLADHLNSTNHAIVQTLVNSVNSSIPKACCVPTELSAISMLYLDEYDKVVLKNYQEMVVEGCGCR
As to B2, the “reduction of primary mammosphere formation” value in the assay with HTwist and MSP cells (setting [3]) came out at 60%. For the same molecule, in the assay on HTwist and MSP cells (both cell lines, treated during primary sphere formation only), the “reduction of secondary sphere formation” value worked out at 90%.

The record behind these values is US9308238B2, “Compositions and methods for modulating EMT and uses thereof” (Whitehead Institute for Biomedical Research, priority 2010, dated 2016).
